These results are taken from PMC8607881 (Nature, 2021).

B1: C-terminally truncated bovine GRK1 (residues 1-535) with C-terminal His6 (enzyme, UniProt P28327 1-535, looked up)
chain: MDFGSLETVVANSAFIAARGSFDASSGPASRDRKYLARLKLPPLSKCEALRESLDLGFEGMCLEQPIGKRLFQQFLRTHEQHGPALQLWKDIEDYDTADDALRPQKAQALRAAYLEPQAQLFCSFLDAETVARARAGAGDGLFQPLLRAVLAHLGQAPFQEFLDSLYFLRFLQWKWLEAQPMGEDWFLDFRVLGRGGFGEVFACQMKATGKLYACKKLNKKRLKKRKGYQGAMVEKKILAKVHSRFIVSLAYAFETKTDLCLVMTIMNGGDIRYHIYNVDEDNPGFQEPRAIFYTAQIVSGLEHLHQRNIIYRDLKPENVLLDDDGNVRISDLGLAVELKAGQTKTKGYAGTPGFMAPELLLGEEYDFSVDYFALGVTLYEMIAARGPFRARGEKVENKELKQRVLEQAVTYPDKFSPASKDFCEALLQKDPEKRLGFRDGSCDGLRTHPLFRDISWRQLEAGMLTPPFVPDSRTVYAKNIQDVGAFSTVKGVAFEKADTEFFQEFASGTCPIPWQEEMIETGVFGDLNVWRPDG
B2: hyper-phosphorylated rhodopsin (light activated) (receptor, bovine, UniProt P02699 1-348, looked up)
chain: MNGTEGPNFYVPFSNKTGVVRSPFEAPQYYLAEPWQFSMLAAYMFLLIMLGFPINFLTLYVTVQHKKLRTPLNYILLNLAVADLFMVFGGFTTTLYTSLHGYFVFGPTGCNLEGFFATLGGEIALWSLVVLAIERYVVVCKPMSNFRFGENHAIMGVAFTWVMALACAAPPLVGWSRYIPEGMQCSCGIDYYTPHEETNNESFVIYMFVVHFIIPLIVIFFCYGQLVFTVKEAAAQQQESATTQKAEKEVTRMVIIMVIAFLICWLPYAGVAFYIFTHQGSDFGPIFMTIPAFFAKTSAVYNPVIYIMMNKQFRNCMVTTLCCGKNPLGDDEASTTVSKTETSQVAPA
modifications: 6–8 phosphates incorporated per rhodopsin (7 possible sites in the cytoplasmic tail)
B3: light activated rhodopsin (Rho*) (receptor, bovine, UniProt P02699 1-348, looked up)
chain: B2 chain
modifications: all-trans retinal (Meta II state)
B4: Fab1 (Fab, V domains shown)
VH: EVQLVESGGGLVQPGGSLRLSCAASGFNLYSSSIHWVRQAPGKGLEWVASIYSYYGSTSYADSVKGRFTISADTSKNTAYLQMNSLRAEDTAVYYCARYEGWWWANTYALDYWGQGTLVTVSS
VL: DIQMTQSPSSLSASVGDRVTITCRASQSVSSAVAWYQQKPGKAPKLLIYSASSLYSGVPSRFSGSRSGTDFTLTISSLQPEDFATYYCQQYYEWLSLFTFGQGTKVEIK
B5: Fab6 (Fab, V domains shown)
VH: EVQLVESGGGLVQPGGSLRLSCAASGFNFSSYSIHWVRQAPGKGLEWVAYISSYYGSTYYADSVKGRFTISADTSKNTAYLQMNSLRAEDTAVYYCARHEYGWWNDRWGLDYWGQGTLVTVSS
VL: DIQMTQSPSSLSASVGDRVTITCRASQSVSSAVAWYQQKPGKAPKLLIYSASSLYSGVPSRFSGSRSGTDFTLTISSLQPEDFATYYCQQSSWYGPFTFGQGTKVEIK

Experiment [1] deals with B3. The experiment in a line: cross-linking.
In experiment [2] the target is B1. The experiment in a line: cross-linking.
Experiment [3] concerns the target biotinylated Avi-tagged GRK1 (residues 1-535, His6-Avi), Sgv-bound (Bos taurus (Bovine)., UniProt P28327, biotin on the Avi-tag). Kind of experiment: ELISA. In general terms: ELISA stands for enzyme-linked immunosorbent assay.

By stoichiometry N is commonly meant a count of units in the complex or per binding partner. B1: the “stoichiometry N” value in experiment [1] is 1.

Consider B2, for which, in experiment [2], the binding result is recorded as “binds”.

On to B3, for which the binding result in experiment [2] was “binds”.

By Kd is commonly meant the concentration at which binding is half-saturated. Lower therefore signals a tighter complex. Consider B4, for which the Kd in experiment [3] is approximately 2.5 nM.

Consider B5, for which the Kd in experiment [3] is approximately 2.5 nM.
